Consider three molecules from PMC10711553, “Structural and biochemical analysis of the PARP1-homology region of PARP4/vault PARP”.

Data set [1] has as its target T1, PARP4 WGR-CAT (Homo sapiens, UniProt Q9UKK3 95-573).
T1 sequence: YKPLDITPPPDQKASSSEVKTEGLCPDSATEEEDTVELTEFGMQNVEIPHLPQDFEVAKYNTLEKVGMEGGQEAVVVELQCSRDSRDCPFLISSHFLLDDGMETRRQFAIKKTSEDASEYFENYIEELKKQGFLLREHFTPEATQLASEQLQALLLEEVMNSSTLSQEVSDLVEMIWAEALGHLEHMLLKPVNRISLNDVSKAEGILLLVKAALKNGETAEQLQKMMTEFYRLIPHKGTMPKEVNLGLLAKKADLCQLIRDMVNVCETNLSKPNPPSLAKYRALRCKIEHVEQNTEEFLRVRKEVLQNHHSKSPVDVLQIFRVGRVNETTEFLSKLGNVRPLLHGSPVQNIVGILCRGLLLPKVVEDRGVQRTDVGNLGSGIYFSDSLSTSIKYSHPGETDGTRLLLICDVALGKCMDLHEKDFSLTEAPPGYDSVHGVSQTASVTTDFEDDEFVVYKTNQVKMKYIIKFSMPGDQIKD
In words: EMSA; 100 nM RNA; FP: 50 mM Tris pH 7.5, 50 mM NaCl, 0.05% NP40, 2 mM DTT, 5% glycerol, room temperature 30 min; EMSA: same but 20% glycerol, 100 nM nucleic acid, room temperature 30 min, gel at 4 C in Tris-glycine. Particulars: protein: recombinant; tags: N-terminal His-SUMO tag, cleaved with TEV; label: none (SYBR Gold stain); Mfold secondary structure, annealed. In general terms: A gel shift assay detects complexes by their altered migration in electrophoresis.

Data set [2] addresses T2, PARP4 BRCT-WGR-CAT (Homo sapiens, UniProt Q9UKK3 1-573).
T2 sequence: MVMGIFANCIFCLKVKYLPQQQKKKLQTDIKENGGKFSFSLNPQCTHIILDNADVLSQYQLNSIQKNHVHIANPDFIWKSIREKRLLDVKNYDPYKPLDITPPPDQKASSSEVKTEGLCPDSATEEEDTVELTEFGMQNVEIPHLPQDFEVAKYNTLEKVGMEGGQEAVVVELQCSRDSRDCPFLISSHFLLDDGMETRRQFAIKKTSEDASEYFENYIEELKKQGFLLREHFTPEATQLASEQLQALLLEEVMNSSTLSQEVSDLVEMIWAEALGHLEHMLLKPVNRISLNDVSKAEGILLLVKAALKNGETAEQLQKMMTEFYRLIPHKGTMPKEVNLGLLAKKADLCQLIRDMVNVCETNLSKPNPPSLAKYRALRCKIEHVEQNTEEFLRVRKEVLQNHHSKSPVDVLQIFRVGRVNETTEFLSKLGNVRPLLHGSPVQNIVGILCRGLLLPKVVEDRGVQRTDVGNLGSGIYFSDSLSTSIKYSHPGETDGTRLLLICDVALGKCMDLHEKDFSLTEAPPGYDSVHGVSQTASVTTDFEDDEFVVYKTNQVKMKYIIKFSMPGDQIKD
The data set is described as follows: EMSA; 100 nM RNA; apparent Kd; FP: 50 mM Tris pH 7.5, 50 mM NaCl, 0.05% NP40, 2 mM DTT, 5% glycerol, room temperature 30 min; EMSA: same but 20% glycerol, 100 nM nucleic acid, room temperature 30 min, gel at 4 C in Tris-glycine. The settings on record: protein: recombinant, tags: N-terminal His-SUMO tag, cleaved with TEV, Mfold secondary structure, annealed.

For data set [3], the target named is T1, PARP4 WGR-CAT. The data set is described as follows: EMSA; 100 nM DNA; FP: 50 mM Tris pH 7.5, 50 mM NaCl, 0.05% NP40, 2 mM DTT, 5% glycerol, room temperature 30 min; EMSA: same but 20% glycerol, 100 nM nucleic acid, room temperature 30 min, gel at 4 C in Tris-glycine. The settings on record: protein: recombinant; tags: N-terminal His-SUMO tag, cleaved with TEV; label: none stated (SYBR Gold stain); blunt.

For data set [4], the target named is T2, PARP4 BRCT-WGR-CAT. In words: fluorescence polarization; 30 nM RNA; apparent Kd; FP: 50 mM Tris pH 7.5, 50 mM NaCl, 0.05% NP40, 2 mM DTT, 5% glycerol, room temperature 30 min; EMSA: same but 20% glycerol, 100 nM nucleic acid, room temperature 30 min, gel at 4 C in Tris-glycine. The settings on record: protein: recombinant; tags: N-terminal His-SUMO tag, cleaved with TEV; label: 5'-6-FAM; Mfold secondary structure, annealed. On the technique in general: Fluorescence polarisation rises when a labelled molecule tumbles more slowly, as on binding a larger partner.

Data set [5] concerns the target T1, PARP4 WGR-CAT. The data set is described as follows: fluorescence polarization; 30 nM RNA; FP: 50 mM Tris pH 7.5, 50 mM NaCl, 0.05% NP40, 2 mM DTT, 5% glycerol, room temperature 30 min; EMSA: same but 20% glycerol, 100 nM nucleic acid, room temperature 30 min, gel at 4 C in Tris-glycine. Particulars: protein: recombinant; tags: N-terminal His-SUMO tag, cleaved with TEV; label: 5'-6-FAM; Mfold secondary structure, annealed.

B1: HDV ribozyme RNA (84 nt) (structured_RNA)
RNA: GCCGGCCAUGGUCCCAGCCUCCUCGCUGGCGGCCGGUGGGCAACAUUCCGAGGGGACCGUCCCUCGGUAAUGGCGAAUGGGACA
On to B1, for which the binding result in the data set with PARP4 WGR-CAT [1] is given as “no binding”. Besides, in the data set with PARP4 BRCT-WGR-CAT [2] (label: none (SYBR Gold stain)), the Kd amounted to 3.4 ± 0.3 µM.

B2: 47-bp DNA duplex (dsDNA)
DNA 1: CAGATCTACCGAATCAGTCCGACGACGCATCTGCACTACGAGGATAC
DNA 2: GTATCCTCGTAGTGCAGATGCGTCGTCGGACTGATTCGGTAGATCTG
Consider B2, for which, in the data set with PARP4 WGR-CAT [3], the binding result was “no binding”.

B3: vtRNA1-2 (structured_RNA)
RNA: GGCUGGCUUUAGCUCAGCGGUUACUUCGAGUACAUUGUAACCACCUCUCUGGGUGGUUCGAGACCCGCGGGUGCUUUCCAGCUCUUUU
In the case of B3, the Kd with PARP4 BRCT-WGR-CAT [4] was 15 ± 9 µM; with PARP4 BRCT-WGR-CAT [2] (label: 5'-6-FAM) it was 1.5 ± 0.4 µM. Further, in the data set with PARP4 WGR-CAT [5], the binding result is on record as “no binding”.
